Tested on: primary human epidermal keratinocytes
Experiment: Keratinocyte dissociation (dispase) assay
Type: cell-based
Conditions: FIG. 5M-5O
Description: The keratinocyte dissociation assay was performed as previously described (Payne et al., 2005), using either PV scFv at 5 μg/mL or PV sera at dilutions of 1:5 to 1:7.5 in 500 μL total volume defined keratinocyte-serum free media (Gibco/Invitrogen). For antibodies that only recognize Dsg3, 1 μg/mL exfoliative toxin A (ETA) was added to wells for the last two hours. For antisera depletion assays, 200 μL of PV sera flowthrough (representing a volume of 100 μL, sera, combined with the first 1-volume fraction of the PBS wash) were incubated with cells in a total volume of 500 μL, with or without ETA treatment. Dissociation assays used the total eluate from the antisera columns, concentrated to a volume of 100 μl (representing a starting volume of 250 μL sera).
The question of whether the in vitro inhibition of Dsg binding by ELISA translated into a functional block of antibody pathogenicity was investigated. It was previously shown that neonatal mouse injection is suboptimal for evaluation of pathogenicity of PV mAbs, due to differences in the specificity of mAbs for human versus mouse Dsg substrates. Therefore, the inhibition of mAb pathogenicity was evaluated by a dispase assay using cultured primary human keratinocytes. […]

B1: Exfoliative toxin A: exfoliative toxin A, inactivates Dsg1 (protein, UniProt P09331 39-280, looked up)
Exfoliative toxin A: EVSAEEIKKHEEKWNKYYGVNAFNLPKELFSKVDEKDRQKYPYNTIGNVFVKGQTSATGVLIGKNTVLTNRHIAKFANGDPSKVSFRPSINTDDNGNTETPYGEYEVKEILQEPFGAGVDLALIRLKPDQNGVSLGDKISPAKIGTSNDLKDGDKLELIGYPFDHKVNQMHRSEIELTTLSRGLRYYGFTVPGNSGSGIFNSNGELVGIHSSKVSHLDREHQINYGVGIGNYVKRIINEKNE
pathogenicity in the keratinocyte dissociation (dispase) assay: do not demonstrate significant pathogenicity
